How the values were obtained:
Assay in all cases: cell-based or functional assay
[1] = target: IL-2βγ receptor complex on recombinant human U2OS cells (PathHunter IL-2 Cytokine Receptor assay) (UniProt P14784)
[2] = target: IL-2 receptor αβγ on recombinant human U2OS cells further engineered to express the IL-2Rα subunit (PathHunter IL-2 Cytokine Receptor assay) (UniProt P01589)
[3] = target: IL-2 receptor signaling complexes on human primary CD8+ T cells and NK cells (human) (UniProt P14784)
[4] = target: IL-2 receptor signaling complexes on human primary Treg cells (IL-2 Rα expressing) (human) (UniProt P01589)
Sequence of IL-2 receptor signaling complexes on human primary Treg cells (IL-2 Rα expressing) (human) (P01589 22-272, chain 1 of 3): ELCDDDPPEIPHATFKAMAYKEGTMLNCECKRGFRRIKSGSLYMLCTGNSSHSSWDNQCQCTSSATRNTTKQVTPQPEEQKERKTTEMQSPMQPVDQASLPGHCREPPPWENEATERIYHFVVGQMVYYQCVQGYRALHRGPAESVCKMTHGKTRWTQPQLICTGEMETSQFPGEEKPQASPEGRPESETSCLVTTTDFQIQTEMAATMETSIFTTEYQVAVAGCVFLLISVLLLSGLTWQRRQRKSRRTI
Sequence of IL-2 receptor signaling complexes on human primary Treg cells (IL-2 Rα expressing) (human) (P14784 27-551, chain 2 of 3, further chain): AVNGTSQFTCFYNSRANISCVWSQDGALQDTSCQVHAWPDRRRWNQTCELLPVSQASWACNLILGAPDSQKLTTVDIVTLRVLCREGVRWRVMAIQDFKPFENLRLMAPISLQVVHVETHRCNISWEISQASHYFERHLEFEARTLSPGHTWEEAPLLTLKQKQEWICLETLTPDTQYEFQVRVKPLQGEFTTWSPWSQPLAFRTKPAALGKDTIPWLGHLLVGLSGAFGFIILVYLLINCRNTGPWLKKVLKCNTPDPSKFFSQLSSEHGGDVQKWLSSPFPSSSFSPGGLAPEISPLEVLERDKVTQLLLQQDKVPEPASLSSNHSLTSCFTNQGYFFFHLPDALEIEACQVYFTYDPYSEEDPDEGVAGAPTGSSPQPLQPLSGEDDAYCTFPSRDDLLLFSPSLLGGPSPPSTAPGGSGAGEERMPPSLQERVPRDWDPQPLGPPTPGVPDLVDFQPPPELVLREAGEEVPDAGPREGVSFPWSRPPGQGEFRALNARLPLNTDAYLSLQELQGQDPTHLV
Sequence of IL-2 receptor signaling complexes on human primary Treg cells (IL-2 Rα expressing) (human) (P31785 23-369, chain 3 of 3, further chain): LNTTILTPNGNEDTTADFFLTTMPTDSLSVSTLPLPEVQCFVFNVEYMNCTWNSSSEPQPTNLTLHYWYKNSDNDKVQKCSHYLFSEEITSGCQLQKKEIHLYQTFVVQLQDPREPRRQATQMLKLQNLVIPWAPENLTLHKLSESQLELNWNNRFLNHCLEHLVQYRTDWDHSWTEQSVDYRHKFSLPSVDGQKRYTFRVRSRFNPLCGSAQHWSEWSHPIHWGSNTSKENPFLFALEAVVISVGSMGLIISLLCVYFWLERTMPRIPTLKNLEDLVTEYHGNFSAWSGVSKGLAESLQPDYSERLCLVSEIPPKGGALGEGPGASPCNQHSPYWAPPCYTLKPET

Sequence of F42_30kD (P60568 other isoform, or with tags, fused parts or gaps limits assumed): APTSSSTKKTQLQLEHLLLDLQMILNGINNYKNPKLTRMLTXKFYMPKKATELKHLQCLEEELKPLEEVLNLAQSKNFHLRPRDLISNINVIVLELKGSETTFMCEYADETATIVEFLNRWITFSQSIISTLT
Sequence of IL-2 receptor signaling complexes on human primary CD8+ T cells and NK cells (human) (P14784 27-551, chain 1 of 2): as the sequence (P14784 27-551, chain 2 of 3, further chain) above
Sequence of IL-2 receptor signaling complexes on human primary CD8+ T cells and NK cells (human) (P31785 23-369, chain 2 of 2, further chain): as the sequence (P31785 23-369, chain 3 of 3, further chain) above
Sequence of K43_30kD (P60568 other isoform, or with tags, fused parts or gaps limits assumed): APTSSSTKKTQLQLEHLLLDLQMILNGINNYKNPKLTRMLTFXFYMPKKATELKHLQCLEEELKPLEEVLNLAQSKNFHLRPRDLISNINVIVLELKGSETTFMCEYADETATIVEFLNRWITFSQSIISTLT
Sequence of K35 (10 kD PEGylated IL-2 conjugate, Table 2) (P60568 other isoform, or with tags, fused parts or gaps limits assumed): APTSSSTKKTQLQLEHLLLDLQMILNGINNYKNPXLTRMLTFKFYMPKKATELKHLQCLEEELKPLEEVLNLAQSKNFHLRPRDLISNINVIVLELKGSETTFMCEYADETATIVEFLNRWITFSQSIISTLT

“F42 (10 kD PEGylated IL-2 conjugate, Table 2) (from UniProt P60568 21-153) (ligand)” showed an EC50 (nM), PathHunter IL-2 Cytokine Receptor assay, βγ [1] of 6.09 nM and an EC50 (nM), PathHunter IL-2 Cytokine Receptor assay, αβγ [2] of 0.515 nM.
Work on “F42_30kD (from UniProt P60568 21-153) (ligand)” yielded an EC50 for pSTAT5 signaling; CD8+ T Cells [3] of 108000 pg/mL, an EC50 for pSTAT5 signaling; NK Cells [3] of 16400 pg/mL and an EC50 for pSTAT5 signaling; Treg Cells [4] of 36900 pg/mL.
Substance “K35 (10 kD PEGylated IL-2 conjugate, Table 2) (from UniProt P60568 21-153) (ligand)” has an EC50 (nM), PathHunter IL-2 Cytokine Receptor assay, βγ [1] of 6.75 nM.
“K43 (10 kD PEGylated IL-2 conjugate, Table 2) (from UniProt P60568 21-153) (ligand)” gave an EC50 (nM), PathHunter IL-2 Cytokine Receptor assay, βγ [1] of 9.84 nM and an EC50 (nM), PathHunter IL-2 Cytokine Receptor assay, αβγ [2] of 0.131 nM.
For “K43_30kD (from UniProt P60568 21-153) (ligand)”, the EC50 for pSTAT5 signaling; CD8+ T Cells [3] was 50500 pg/mL, the EC50 for pSTAT5 signaling; NK Cells [3] was 9000 pg/mL and the EC50 for pSTAT5 signaling; Treg Cells [4] was 4800 pg/mL.
“R38 (10 kD PEGylated IL-2 conjugate, Table 2) (from UniProt P60568 21-153) (ligand)” gave an EC50 (nM), PathHunter IL-2 Cytokine Receptor assay, βγ [1] of 4.16 nM and an EC50 (nM), PathHunter IL-2 Cytokine Receptor assay, αβγ [2] of 0.165 nM.
“T41 (10 kD PEGylated IL-2 conjugate, Table 2) (from UniProt P60568 21-153) (ligand)” showed an EC50 (nM), PathHunter IL-2 Cytokine Receptor assay, βγ [1] of 6.37 nM and an EC50 (nM), PathHunter IL-2 Cytokine Receptor assay, αβγ [2] of 0.0489 nM.
For “V69* (30 kD PEGylated IL-2 conjugate, Table 2) (from UniProt P60568 21-153) (ligand)”, the EC50 (nM), PathHunter IL-2 Cytokine Receptor assay, βγ [1] was 9.99 nM and the EC50 (nM), PathHunter IL-2 Cytokine Receptor assay, αβγ [2] was 0.083 nM.
For “Y45* (30 kD PEGylated IL-2 conjugate, Table 2) (from UniProt P60568 21-153) (ligand)”, the EC50 (nM), PathHunter IL-2 Cytokine Receptor assay, βγ [1] was 9.06 nM and the EC50 (nM), PathHunter IL-2 Cytokine Receptor assay, αβγ [2] was 0.11 nM.
